The text below walks through data of paper PMC12292289, “Identification of a Novel Antibacterial Function of Mammalian Calreticulin” (Biomolecules, 2025).

Series [1] has as its target recombinant goat calreticulin (Capra hircus (goat)). The experiment in a line: SEC; SEC-HPLC of the purified recombinant protein; retention time compared with that of standards (Figure S1).
Series [2] concerns the molecule itself. Described as above.

Take “recombinant goat calreticulin (natural protein)”: the stoichiometry N (as a rule, the number of molecules, sites or subunits per partner or assembly) in series [1] was 2.

B1: recombinant human calreticulin (natural protein, UniProt P27797 18-417, looked up)
chain: EPAVYFKEQFLDGDGWTSRWIESKHKSDFGKFVLSSGKFYGDEEKDKGLQTSQDARFYALSASFEPFSNKGQTLVVQFTVKHEQNIDCGGGYVKLFPNSLDQTDMHGDSEYNIMFGPDICGPGTKKVHVIFNYKGKNVLINKDIRCKDDEFTHLYTLIVRPDNTYEVKIDNSQVESGSLEDDWDFLPPKKIKDPDASKPEDWDERAKIDDPTDSKPEDWDKPEHIPDPDAKKPEDWDEEMDGEWEPPVIQNPEYKGEWKPRQIDNPDYKGTWIHPEIDNPEYSPDPSIYAYDNFGVLGLDLWQVKSGTIFDNFLITNDEAYAEEFGNETWGVTKAAEKQMKDKQDEEQRLKEEEEDKKRKEEEEAEDKEDDEDKDEDEEDEEDKEEDEEEDVPGQAKDEL
notes: calreticulin, human; bought recombinant protein (Sino Biological, P27797); P27797 is printed where the reagent list gives catalogue numbers; also called recombinant human calreticulin expressed in HEK293 cells; source: bought: Sino Biological; expressed in HEK293 cells
As to B1, in series [2], the “stoichiometry N” value turned out to be 2.
